Laboratory results: the nanobody polyreactivity screen of Harvey et al. (2022)

Experiment: yeast display, Sf9 membrane polyspecificity reagent, FACS + sequencing; frameworks hold sequencing errors
Outline: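 Genes from sorted yeast were amplified by colony PCR, read by MiSeq 2 × 250 sequencing and filtered on CDR length. These cells carried a synthetic nanobody library in Saccharomyces cerevisiae BJ5465 and were sorted by FACS into low and high (top ~1%) gates on anti-HA and streptavidin fluorescence. Polyreactivity is labelled according to the gate of origin.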

## QVQLVESGGGLVQAGGSLRLSCAASGFIFFYYAMGWYRQAHGKERELVAAISASGGSTYYADSVKGRFTISRDNAKNTVYLQMNSLKPEDTAVYYCATDPISRARLYGQRDYWGQGTQVTVSS
  polyreactivity (PSR sort gate): high polyreactivity

## QVQLVESGGGLVQAGGSLRLSCAASGRTFGLYDMGWYRQAPGKERELVAGITRRGGRTYYADSVKGRFTISRDNAKNTVYLQMNSLKPEDTAVYYGAAGTLYLRHAQSPFDYWGQGTQVTVSS
  polyreactivity (PSR sort gate): high polyreactivity

## QVQLVESVGGLVQAGGSLRLSGAASGRTFSSYALGWYRQAPGKVRELVAGIRLSTGSTYYADSVKGRFTISRDNAKNTVYLQMNSLQPEDTAVYYCNARGWAYSGAKSYYWGQGTQVTLSS
  polyreactivity (PSR sort gate): high polyreactivity

## QVQLVESGGGLVQAGGSLRLSCAASGFIFDSYAMGWYRQAPGKERELVAAISWSGGRTYYADSVKGRFTISRDNAKNTVYLQMNSLKPEDTAVYYCNVRTKLSTSYDYWGQGTQVTVSS
  polyreactivity (PSR sort gate): high polyreactivity

## QVQLVESGGGLVQAGGSLRLSCAASGLTIVNYAMGWYRQAPGKERELVAAITVNGGRTYYADSVKGRFTISRDNAKNTVYLQMNSLKPEDTAVYYCAAVYYRHWYTYSSDYWGQGTQVTVSS
  polyreactivity (PSR sort gate): high polyreactivity

## QVQLVESGGGLVQAGGSLRLSCAASGGIFDSYAMGWYRQAPGKERELVAAISWSGDRTYYADSVKGRFTISRDNAKNTVYLQMISLKPEDTAVYYCAADDGYTYGEGYYWGQGTQVTVSS
  polyreactivity (PSR sort gate): high polyreactivity

## QVQLVESGGGLVQEGGSLRLSCAASGSIFGGYVMGWYRQAPGKERELVAAITSGGSTYYADSVKGRFTISRDNAKNTVYLQMNSLKPEDTAVYYCAKDYGDWGQGTQVTVSS
  polyreactivity (PSR sort gate): low polyreactivity

## QVQLVESGGGLVQAGGSLRLSCAASGRIFYRYAMGWYRQAPGKERELVASITSGGSTTYYADSVKGRFTISRDNAKNTVYLQMNSLKPEDTAVYYCAARPRYRKEYDYWGQGTQVTVSS
  polyreactivity (PSR sort gate): high polyreactivity

## QVQLVESGGVLVQAGGSLRLSCDASGRIFKYNAMGWYRQAPGKERELVDVITSGVSTYYADSVKGRFTISRDNAKNTVYLQMNSLKPEDTAVYYCAKKYYKVHKFDYWCQGTQVTVSS
  polyreactivity (PSR sort gate): low polyreactivity

## QVQLGESGGGLVQAGGSLRLSCAASGRIIYTNAMGWYRQAPGKETELVAAINRSGGITYYADSVKGRFTISRDNAKNTVYLQMNSLKPEDTAVYYCAKDYSWASYKHDYWGQGTQVTVSS
  polyreactivity (PSR sort gate): low polyreactivity

## QVQLVESGGGLVQAGGTLRLSCAASGIIFSFYTMGWYRQAPGKERELVAAITWSGGSTYYADSVKGRFTISRANAKNTVYLQMNSLKPEDTAVYYCNARNPWRKRSQGYSWGQGTQVTVSS
  polyreactivity (PSR sort gate): low polyreactivity

## QVHLQERGGGLVQAGGSLRLSCAASGSIFYWPWMGWYRQAPGREREFVATITTGSNTYYADSMKGHLTNSRDNAINTVYLQMISQKPEDTAVYFCAVVGDGEIEHRYWGQGTQVTVSS
  polyreactivity (PSR sort gate): high polyreactivity

## QVQLVESGGGLVQAGGSLRLSGAASGFTFDNNAMGWYRQAPGKEREMVAAITGRGSRTNYADSVKGRFTISRDNAKNTVYLQMNSLKPEDTAVYYCATRLWVYGEGSFDDWGQGTQVTVSS
  polyreactivity (PSR sort gate): high polyreactivity

## QVQLVVSGGGLVQAGGSLRLRCAASGRTIWPYAMGWYRQAPRKESEFDAAITWTVGRTYYADSVKGRFTISRDNAKNTVYLQMNSLKPDDTAVYYCNARSYSQTLFGYPDDYWGQGTQVTVSS
  polyreactivity (PSR sort gate): high polyreactivity

## QVQLVESGGGLVQAGGSLRLSCAASGRIFGTNAMGWYRQAPGKERELVATITRGGGNTYYADSVKGRFTISRDNAKNTVYLQMNSLKPEDTAVYYCAAKFHRFAWYSHYDYWGQGTQVTVSS
  polyreactivity (PSR sort gate): low polyreactivity

## QVQLVESGGGLVQAGGSLRLSCAASGSIVRRYAMGWYRQAPGKEREFVAAISKRGGGTYYADSVKGRFTISRDNAKNTVYLQMNSLKPEDTAVYYCAAPWRRIGYTTRGYTLYDYWGQGTQVTVSS
  polyreactivity (PSR sort gate): high polyreactivity

## QVQLVESGGGLVQAGGSLRLSCAASGSTFRTYTMGWYRQAPGKERELVAAISSIGSSTFYADSVKGRFTISRDNAKNTVYLQMISLKPEDTAVYYCAAVRRGGGVIYDYWGQGTQVTVSS
  polyreactivity (PSR sort gate): high polyreactivity

## QVQLVESGGGLVQAGGSLRLSCAASGRTFKGYAMGWYRQAPGKERELVAAISYRGGSTYYADSVKGRFTISRDKAKKTFYLQMNSLKPEDTAVYYCAADIQPYVYDGYPVGMDYWGQGTQVTVSS
  polyreactivity (PSR sort gate): high polyreactivity

## QVQLVESGGGLVQAGGSLRLSCAASGFISYYYAMGWYRQAPGKDWELVAVITSGGSTDYADSVKGRFTISRDHAKNTVYLQMNSLKPEDTAVYYCARDDPASHKRYWHDYWGQGTQVTVSS
  polyreactivity (PSR sort gate): low polyreactivity

## QVHLVESGGGLVQAGGSLRLSCAASGSTFLGYAMGWYRQAPGKERELVAAISWSGGTTYYADSVKGRFTISRDNAKNTVYFQMISQKPEDTAVYYCNVYTRGRYEYWGQGTQVTVSS
  polyreactivity (PSR sort gate): low polyreactivity

## QVHLEESGGGLVQAGGSLRLSCAASGGTILAYAMGWYRQAPGKERELVAAITRRGTRTYYADSVKGRFTISLDNAKNTVYLQMNSLKPEVTAVFYCAVSGGFYWGQGTQVTVSS
  polyreactivity (PSR sort gate): high polyreactivity

## QVQLVESGGGLVQAGGSLRLSCAASGITFPRYVMGWYRQAPGKERELVAAISTSGGSTYYADSVKGRFTISRDNAKNTVYLQMNSLKPEDTAVYYCAALDIYSSTYPVEYDYWGQGTQVTVSS
  polyreactivity (PSR sort gate): high polyreactivity

## QVQLVETGRGLFHAGGSLRLSCAASGGIFRVYAMGWYIPAPGKERELVAAISRSGSSTYYADSVKGRFTISRDNAKNTVYLQMNSLKPEDTAVYYCNAYSQYWLGNNYWGQGTQVTVSS
  polyreactivity (PSR sort gate): high polyreactivity

## QVQLVESAVGLVQAGGSLRLSSAASGFTFLNYAMGSYRQAPGKVRELVAAITWSGGNTYYADSVMGRFTISRDNAKNTVYLQMNSLKPEDTAVYYCAADYRARGKFYWGQGTQVTVSS
  polyreactivity (PSR sort gate): high polyreactivity

## QVQLVESGGGLVQAGGSLRLSCAASGSIFNYNDMGWYRQAPGKERELVAAIDSSGTSTYYADSVKGRFTISRDNAKNTVYLQMNSLKPEDTAVYYCNADSSLGFGYWGQGTLVTVSS
  polyreactivity (PSR sort gate): low polyreactivity

## QVQLVESGRGLVQAGGSLRISCAASGITFVFYAMGWYRQAPGKEIELVAAMSWSGGITYYADSVKGRFTISRDNSKNSVYLQMNSLKPEDTAVYYCAATKRQTKYYGGTTDSIRYYWGQGTQVTVSS
  polyreactivity (PSR sort gate): low polyreactivity

## QVQLVESGGGLVQAGGSLRISSAASALIIYDNMGRYRQAPGKERELVAAISSSGGSTSYADSVKGRFTFSRDNANNTVYLQMNSLKPEDTAVYYSAADSYPAYLGFVGFDYWGQGTQVTVSS
  polyreactivity (PSR sort gate): low polyreactivity

## QVQLVESGGGLVLAGGSLRLSCAASGITFRNYAMGWYRQAPGKEMEFVATISRRAGSTYYADSVKGRFTISRDNAKNTVYLQMNSLKPEDTAVYYCVTYRNWWYDYWGQGTQVTVSS
  polyreactivity (PSR sort gate): high polyreactivity

## QVQLVESGGGLVQAGGSLRLSCAASGSIFTNNAMGWYRQAPGKERELVAGISFRGSSTYADSVKGRFTISRDNAKNTVYLQMNSLKPEDTAVYYCAAEWFDLEDDYWGQGTQVTVSS
  polyreactivity (PSR sort gate): low polyreactivity

## QVQLVESGGGLVQAGGSLRLSCAASGSIFPENAMGWYRQAPGKERELVAAITSSDSSTYYADSVKGRFTISRDNAKNTVYLHMNSLKPEDTAVYSCAAYRVGFRFREYYWGQGTQVTVSS
  polyreactivity (PSR sort gate): low polyreactivity

## QVQLVESGVGLVQAGGILRLSCAASGSIFAVNAMGWYRQAPGKERELFAAISKRGGSTYYADSVKGRFTISRDNAKNTVYLQMNSLKPEDTAVYYCAARILVTYHRDYYYWGLGTQVTVSS
  polyreactivity (PSR sort gate): high polyreactivity

## QVQLVESGGGLVQAGGSLRLSCAASGSTFYSYAIGWYRQAPGKERELVADISYSDGSTYYADSVKGRFTISRDYAKNTVYLQMNSLKPEDTAVYYCDAYALSYFKIMDYWGQGTQVTVSS
  polyreactivity (PSR sort gate): low polyreactivity

## QVQLVESGGGLVQAGGSLRLSCAASGSIFYPNVMGWYRQAPGKERELVATISWSGGNTYYADSVKGRFTISRDNAKNTVYLQMNSLKPEDTAVYYCAADQWSQDYDYWGQGTQVTVSS
  polyreactivity (PSR sort gate): low polyreactivity

## QVQLVESGGGLVQAGGSLRLSCAASGSTFQGNAMGWYRQAPGKERELVAAISTSGGRTRYADSVKGRFTISRDKAKNTVYLQMNSLKPEDTAVYHCATTYWYGKRPKMYYWGQGTQVTVSS
  polyreactivity (PSR sort gate): high polyreactivity

## QVQLVESGGGLVQAGGSLRLSCAASGSIIGRYAMGWYRQAPAKERELVATITFRDTSTYYADSVKGRFTISRDNAKNTVYLQMNSLKTEDTAVYYCAAVRADLWDIARYDYWGQGTQVTVSS
  polyreactivity (PSR sort gate): low polyreactivity

## QVHLVESGGGLVQAGGSLRLSCAASGLIFLWNAMGWYRQAPGKERELVAAISWSGGSTYYADSVKGRFTISRDNAKNTVYLQMNSLKPEDTAVYYCIRLLSLEFGFWGQGTQVTVSS
  polyreactivity (PSR sort gate): high polyreactivity

## QVQLVESGGGLVQAGGSLRLSCAASGYTFEYYAMGWYRQAPGKERELVAAISWSGGDTYYADSVKGRFTISRDNAKNTVYLQMNSLKPEDTAVYYCNADLYNYFYYANWYGAYDYWGQGTQVTVSS
  polyreactivity (PSR sort gate): low polyreactivity

## QVQLVESGGGLVQAGGSLRLSCAASGIIFTNYAMGWYRQAPGKERELVAAISSSSGTTYYADSVKGRFTISRDNAKNTDYLQMNSLKPEDTALYYCNAGRSWRRTHYDYWVQGTQVTVSS
  polyreactivity (PSR sort gate): high polyreactivity

## QVHLVESAGGLVHAGGSHRLSCAASGFIFYRNAMGCYRQEPGKERELVAAISYRGARTYYADSVKGRFTISRDYEKNTVYLQMNSLKPEDTAVYYCAAQGVSSPGVDSWGQGTQVTVSS
  polyreactivity (PSR sort gate): high polyreactivity

## QVQLVESGGGLVQAGGSLRLSCAASGSIFTLYARGWYREAPGKERELVAAITWTGGSTYYADSVKGRFTISRDNAKNTVYLQMNSLKPEDTAVYYCATDAYWQSNGAFYYVARHGGYWGQGTQVTVSS
  polyreactivity (PSR sort gate): low polyreactivity

## QVQLVESGGGLVQAGGSLRLSCAASGFTFQYYAMGWYRQAPGKERELVAAISWSGTSPYYADSVKGRFTISRDNAKNTVYLQMISLKPADTAVYDCAASVWYYYSDYDYWGQGTQVTVSS
  polyreactivity (PSR sort gate): high polyreactivity

## QVQLVESGGGLVQAGGSLRLSCAASGSIFEGYVMGWYRQAPGKERELVAAITTGGGSTYYADSVKGRFTISRDNAKKTVYLQMNSLKPEDTAVYYCAKDYWFGYEYWGQGTQVTVSS
  polyreactivity (PSR sort gate): low polyreactivity

## QVQLVESGGGLVQAGGSLRLSCAASGRTFRIYAMGWYRQAPGKERELVAAINSGGTTNYADSVKGRFTISRDNAKNTVYLQMISLKPEDTAVYYCAVRYSKTLSHFSYDYWGQGTQLTVSS
  polyreactivity (PSR sort gate): low polyreactivity
